T1: eIF2Bδ (subunit of eIF2B) (S. cerevisiae, UniProt P12754 1-651)
T1 construct: eIF2B delta subunit, S. cerevisiae; Stood in the assay as a subunit of the eIF2B decamer; also called eIF2B delta; source: S. cerevisiae strains GP5949 and GP7055, purified as part of Flag-eIF2B
T1 sequence: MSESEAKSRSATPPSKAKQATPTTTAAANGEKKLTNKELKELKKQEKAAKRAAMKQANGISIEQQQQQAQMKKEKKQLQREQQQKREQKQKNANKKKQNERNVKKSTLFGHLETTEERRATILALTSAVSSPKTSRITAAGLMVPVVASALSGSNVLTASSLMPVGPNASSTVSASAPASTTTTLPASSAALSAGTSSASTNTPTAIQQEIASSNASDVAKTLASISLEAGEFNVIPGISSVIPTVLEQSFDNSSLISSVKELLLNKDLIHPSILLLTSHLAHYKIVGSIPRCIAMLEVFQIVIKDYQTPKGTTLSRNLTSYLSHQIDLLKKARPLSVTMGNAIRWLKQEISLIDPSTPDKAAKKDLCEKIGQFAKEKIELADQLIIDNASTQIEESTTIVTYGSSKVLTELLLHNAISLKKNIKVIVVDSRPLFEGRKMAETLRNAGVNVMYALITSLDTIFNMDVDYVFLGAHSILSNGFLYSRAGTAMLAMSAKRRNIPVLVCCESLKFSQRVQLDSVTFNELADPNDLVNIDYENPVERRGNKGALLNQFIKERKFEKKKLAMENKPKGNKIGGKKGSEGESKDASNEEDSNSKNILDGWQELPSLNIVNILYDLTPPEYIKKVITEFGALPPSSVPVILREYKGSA


Tests used:
[1] = biological target: the molecule itself; test: cryo-EM structure; eIF2αP/eIF2B complex: six-fold molar excess of eIF2αP added to purified eIF2B (GP5949), fractionated on Superose 6 in 20 mM Tris-HCl, 100 mM KCl, 1 mM TCEP, pH 7.5; core map 3.9 Å, lateral densities 8-18 Å; half-particles classified by localised reconstruction
[2] = biological target: T1, eIF2Bδ (subunit of eIF2B); test: as above; conditions: both partners purified

Binder	binding result [1]	binding result [2]
eIF2Bα (subunit of eIF2B) (natural protein, S. cerevisiae, eIF2B alpha subunit, S. cerevisiae; Stood in the assay as a subunit of the eIF2B decamer; also called eIF2B alpha; source: S. cerevisiae strains GP5949 and GP7055, purified as part of Flag-eIF2B) MSEFNITETYLRFLEEDTEMTMPIAAIEALVTLLRIKTPETAAEMINTIKSSTEELIKSIPNSVSLRAGCDIFMRFVLRNLHLYGDWENCKQHLIENGQLFVSRAKKSRNKIAEIGVDFIADDDIILVHGYSRAVFSLLNHAANKFIRFRCVVTESRPSKQGNQLYTLLEQKGIPVTLIVDSAVGAVIDKVDKVFVGAEGVAESGGIINLVGTYSVGVLAHNARKPFYVVTESHKFVRMFPLSSDDLPMAGPPLDFTRRTDDLEDALRGPTIDYTAQEYITALITDLGVLTPSAVSEELIKMWYD	binds	
eIF2Bβ (subunit of eIF2B) (natural protein, S. cerevisiae, eIF2B beta subunit, S. cerevisiae; Stood in the assay as a subunit of the eIF2B decamer; also called eIF2B beta; source: S. cerevisiae strains GP5949 and GP7055, purified as part of Flag-eIF2B) MSSQAFTSVHPNAATSDVNVTIDTFVAKLKRRQVQGSYAIALETLQLLMRFISAARWNHVNDLIEQIRDLGNSLEKAHPTAFSCGNVIRRILAVLRDEVEEDTMSTTVTSTSVAEPLISSMFNLLQKPEQPHQNRKNSSGSSSMKTKTDYRQVAIQGIKDLIDEIKNIDEGIQQIAIDLIHDHEILLTPTPDSKTVLKFLITARERSNRTFTVLVTEGFPNNTKNAHEFAKKLAQHNIETLVVPDSAVFALMSRVGKVIIGTKAVFVNGGTISSNSGVSSVCECAREFRTPVFAVAGLYKLSPLYPFDVEKFVEFGGSQRILPRMDPRKRLDTVNQITDYVPPENIDIYITNVGGFNPSFIYRIAWDNYKQIDVHLDKNKA		binds

From article PMC6513899, “The structural basis of translational control by eIF2 phosphorylation” (Nature Communications, 2019)
